Values joined by “and” are separate entries in the source; they are usually repeats but may differ in a detail not shown here. Identical values can stand only once. Like-named read-outs stand apart in the source and are kept apart here.

Assay [1] deals with T1, corticotropin-releasing hormone (CRH) peptide (human and mouse (same sequence), not fully specified).
T1 peptide: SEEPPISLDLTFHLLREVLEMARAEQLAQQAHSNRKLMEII
Briefly: cell-based or functional assay.

Assay [2] has as its target T1, corticotropin-releasing hormone (CRH) …. As to the kind of experiment: cell-based or functional assay.
Assay [3] has the same target. Briefly: cell-based or functional assay.
Assay [4] has the same target. Briefly: cell-based or functional assay.
For assay [5] the target is unchanged. Briefly: cell-based or functional assay.
The target is the same in assay [6]. Briefly: cell-based or functional assay.
In assay [7] the target is T2, CRH (NT-Biotin) (human and mouse (same sequence), not fully specified; biotin at the N-terminus).
T2 peptide: T1 peptide
As to the kind of experiment: ELISA, biotinylated CRH on streptavidin plate. Put shortly:
(§1)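 Streptavidin coat 2 μg/ml in PBS, o/n 4° C. TMB 15 min RT, stop solution, read OD450 nm.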
Background: An ELISA detects its analyte on a solid surface through an enzyme-linked reagent.

The target of assay [8] is T3, CRH (CT-Biotin) (human and mouse (same sequence), biotin on an added C-terminal K (CRH-K-Biotin)).
T3 construct: also called Peptide 4 (CRH-Biotin)
T3 peptide: T1 peptide
Briefly: ELISA, biotinylated CRH on streptavidin plate. The method, boiled down: as §1

Assay [9] concerns the target T2, CRH (NT-Biotin). As to the kind of experiment: ELISA, biotinylated CRH on streptavidin plate. As to the method:
(§2) Streptavidin (Thermo, Cat: 21125) was diluted in PBS to a concentration of 2 μg/ml. 100 μl of diluted streptavidin was added per well to ELISA microplates, and the plates were incubated overnight at 4° C. […] 100 μL of 3,3′,5,5′-tetramethylbenzidine (TMB) substrate (Biopanda, Cat: TMB-S-003) was added, and the plates were incubated at room temperature for 15 minutes. 100 μL of ELISA stopping solution (Solarbio, Cat #: C1058) was added to terminate the reaction, and the optical density at 450 nm (OD450 nm) was determined by an ELISA plate reader (Molecular Devices, Spectra max 384 plus).

Assay [10] addresses T3, CRH (CT-Biotin). As to the kind of experiment: ELISA, biotinylated CRH on streptavidin plate. As to the method: as §2
For assay [11], the target named is T2, CRH (NT-Biotin). As to the kind of experiment: ELISA, biotinylated CRH on streptavidin plate. As to the method:
as §2

Assay [12] addresses T3, CRH (CT-Biotin). As to the kind of experiment: ELISA, biotinylated CRH on streptavidin plate. Here is the method: as §2
Assay [13] concerns the target T2, CRH (NT-Biotin). Briefly: ELISA, biotinylated CRH on streptavidin plate. Here is the method:
as §2

In assay [14] the target is T3, CRH (CT-Biotin). As to the kind of experiment: ELISA, biotinylated CRH on streptavidin plate. Here is the method: as §2
The target in assay [15] is T2, CRH (NT-Biotin). Briefly: ELISA, biotinylated CRH on streptavidin plate. As to the method:
as §2

Assay [16] has as its target T3, CRH (CT-Biotin). Briefly: ELISA, biotinylated CRH on streptavidin plate. Here is the method: as §2
The target in assay [17] is T2, CRH (NT-Biotin). Briefly: ELISA, biotinylated CRH on streptavidin plate. As to the method: as §2
In assay [18] the target is T3, CRH (CT-Biotin). Briefly: ELISA, biotinylated CRH on streptavidin plate. As to the method:
as §2

A further assay has as its target T4, human UCN1 peptide (human, UniProt P55089 83-122, not fully specified; biotin at N- or C-terminus in the ELISA).
T4 construct: also called hUCN1; hUCN1 (NT Biotin)
T4 peptide (looked up): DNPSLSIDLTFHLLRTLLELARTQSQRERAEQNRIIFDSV
As to the kind of experiment: ELISA, biotinylated hUCN1 on streptavidin plates.

In a further assay the target is T5, human UCN2 peptide (human, UniProt Q96RP3 72-109, limits assumed, not fully specified; biotin at N- or C-terminus in the ELISA).
T5 construct: also called hUCN2; hUCN2 (NT Biotin)
T5 peptide (looked up): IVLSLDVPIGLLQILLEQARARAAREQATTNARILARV
As to the kind of experiment: ELISA, biotinylated hUCN2 on streptavidin plates. Here is the method: (§3) Streptavidin (Thermo, Cat: 21125) was diluted in PBS with a concentration of 2 μg/mL. 100 μL of diluted streptavidin was added per well to ELISA microplates, and the plates were incubated overnight at 4° C. Plates were blocked with ELISA blocking solution (containing 2% w/v BSA, 0.05% (v/v) Tween-20, pH 7.4 PBS buffer) at 37° C. for 1 hour, and then incubated with either 1 μg/mL hUCN1 (NT Biotin), hUCN1 (CT Biotin), hUCN2 (NT Biotin), hUCN2 (CT Biotin), hUCN3 (NT Biotin), or hUCN3 (CT Biotin) for 1 hour at 37° C. […] 100 μl of TMB Substrate (Biopanda, Cat: TMB-S-003) was added, and the plates were incubated at room temperature for 15 minutes. 100 μL of ELISA stopping solution (Solarbio, Cat #: C1058) was then added to terminate the reaction, and the OD450 nm was determined by an ELISA plate reader (Molecular Devices, Spectra max 384 plus).

For another assay, the target named is T6, human UCN3 peptide (human, UniProt Q969E3 120-157, not fully specified; biotin at N- or C-terminus in the ELISA).
T6 construct: also called hUCN3; hUCN3 (NT Biotin)
T6 peptide (looked up): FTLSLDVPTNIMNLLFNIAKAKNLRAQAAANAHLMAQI
Briefly: ELISA, biotinylated hUCN3 on streptavidin plates. Here is the method:
as §3

For assay [19], the target named is T7, biotinylated CRH (human and mouse, not fully specified; biotinylated, position not stated).
T7 construct: also called Biotin-CRH; biotin-labeled CRH
T7 peptide: T1 peptide
Briefly: Octet BLI, biotinylated CRH on SA sensor. (In BLI a coated tip is dipped into the sample, and binding shifts an interference pattern.)

The target of assay [20] is T7, biotinylated CRH. Briefly: Octet in-tandem, row = 1st mAb; competitor (2nd mAb) PR005660. Here is the method: (§4) SA sensors (Fortebio, Cat #18-5019) were hydrated in running buffer for 10 mins.
In assay [21] the target is T7, biotinylated CRH. As to the kind of experiment: Octet in-tandem, row = 1st mAb; competitor (2nd mAb) PR006669. As to the method: as §4
Assay [22] addresses T7, biotinylated CRH. Briefly: Octet in-tandem, row = 1st mAb; competitor (2nd mAb) PR301777. Here is the method: as §4
The target of assay [23] is T7, biotinylated CRH. As to the kind of experiment: Octet in-tandem, row = 1st mAb; competitor (2nd mAb) PR302334. As to the method: as §4
Assay [24] addresses T7, biotinylated CRH. As to the kind of experiment: Octet in-tandem, row = 1st mAb; competitor (2nd mAb) PR303394. Here is the method: as §4
The target in assay [25] is T7, biotinylated CRH. Briefly: Octet in-tandem, row = 1st mAb; competitor (2nd mAb) PR302309-8. Here is the method:
as §4

Assay [26] deals with T7, biotinylated CRH. As to the kind of experiment: Octet in-tandem, row = 1st mAb; competitor (2nd mAb) PR302341-34. As to the method:
as §4

B1: PR004290 (antibody, human IgG1, kappa, V domains shown)
VH: EVQLVESGGVLVQPGGSLRLSCAASGFTFSSYWMTWVRQAPGKGLEWVANIKQDGSEKYYVDSVKGRFTISRDNAKNSLFLQMNSLRAEDTAVYYCARTLIFDYWGQGTLVTVSS
VL: DIVMTQSPLSLPVTPGEPASISCRSSQSLLHSTGYNSLEWYLQKPGQSPQLLIYLGSNRASGVPDRFSGSGSGTDFTLKISRVEAEDVGIYYCMQTLQTPITFGQGTRLEIKR
notes: Series 1; human IgG1 wildtype Fc; also called Hybridoma Clone 28b3
As a reminder, the EC50 is the concentration at which the effect is half-maximal. Regarding B1, the “hCRHR1 Luciferase Reporter Assay IC50” value in assay [1] was 3690 pM and 4870 pM; in [2], 3690 pM; in [3], 5410 pM; in assay [5], 1830 pM; in [6], 1830 pM. Further, the “mCrhr1 Luciferase Reporter Assay IC50” value in [1] was 17000 pM and 7780 pM; in [2] it was 13000 pM; in assay [3], 18500 pM; in assay [4], 5240 pM; in assay [5] it was 5240 pM; in assay [6] it was 5240 pM. Further, the EC50 in the assay with CRH (NT-Biotin) [7] was 29 pM; in the assay with CRH (CT-Biotin) [8], 64 pM and 32 pM; with CRH (NT-Biotin) [9], 29 pM; in the assay with CRH (CT-Biotin) [10], 32 pM; in the assay with CRH (NT-Biotin) [11], 39 pM; with CRH (CT-Biotin) [12], 70 pM. For the same molecule, the half-maximal effective concentration (EC50) in the assay with CRH (NT-Biotin) [13] came out at 39 pM; in the assay with CRH (CT-Biotin) [14] it was 70 pM; in the assay with CRH (NT-Biotin) [15], 39 pM; with CRH (CT-Biotin) [16], 70 pM; with CRH (NT-Biotin) [17] it was 39 pM; with CRH (CT-Biotin) [18] it was 70 pM.

B2: PR302334-26 (antibody, human IgG1, kappa, V domains shown)
VH: EVQLVESGGGLVQPGGSLRLSCAASGFTFSTYAMSWVRQAPGKGLEWVASIRSGGTTYYPDSVKGRFTISRDNSKNSLYLQMNSLRAEDTAVYYCTRGIDWGQGTTVTVSS
VL: DIVMTQSPDSLAVSLGERATINCKASQSVNNDVAWYQQKPGQPPRLLIYYASNRYTGVPDRFSGSGSGTDFTLTISSLQAEDLAVYFCQQDYSSWTFGGGTKVEIKR
notes: Humanized variant of PR302334
With B2, the binding result with human UCN1 peptide, in the assay with human UCN2 peptide and with human UCN3 peptide was “no binding (tested: 100 nM)” in each case.

B3: PR302334 (antibody, human IgG1, kappa, V domains shown)
VH: EVKLVESGGGLVKPGGSLKLSCAASGFTFSTYAMSWVRQTPEKRLEWVASIRSGGTTYYPDSVKGRFTISRDNARNILYLQMSSLRSEDTAIYYCTRGIDWGQGTLVTVSA
VL: NIVMTQTPKFLLVSAGDRITITCKASQSVNNDVAWYQQKPGQSPKLLIYYASNRYTGVPDRFTGSGYGTDFTFTISTVQAEDLAVYFCQQDYSSWTFGGGTNLEIKR
notes: Series 9; mouse variable domains with human IgG1 wildtype Fc
What is called Kd is the constant that tells how readily two partners part at equilibrium. A low value points to tighter binding. A word on the koff: it is the first-order rate constant of dissociation. Higher therefore signals a short-lived complex. The term kon denotes the rate constant with which the complex forms. A low value points to slow association. Broadly, the % Inhibition is the share of the control response that was lost under treatment. In the assay with biotinylated CRH [19], B3 came in with a Kd of less than 1 pM. Besides, the koff in the assay with biotinylated CRH [19] is less than 1e-07 s⁻¹. The kon with biotinylated CRH [19] was 669000 M⁻¹ s⁻¹. In addition, the “% Inhibition” value in the assay with biotinylated CRH [20] is 92%; with biotinylated CRH [21] it was 93%; in the assay with biotinylated CRH [22], 90%; with biotinylated CRH [23], 95%; with biotinylated CRH [24], 89%; in the assay with biotinylated CRH [25], 91%. Further, in the assay with biotinylated CRH [26], the “% Inhibition” value is 88%.

These data come from patent US20260042834A1 (HBM ALPHA THERAPEUTICS, published 2026).
